# Paper PMC5686756 (2017)
# Tests used:
# [1] = molecular target: T1, GB1-tagged ks-vFLIP (residues 1 to 188) (Kaposi's sarcoma-associated herpesvirus …, UniProt Q76RF1 1-188); assay: ITC; apparent Kd, competition in presence of spIKKγ (deionized water)
# [2] = molecular target: T1, GB1-tagged ks-vFLIP (residues 1 to 188); assay: ITC; in buffer
binder,measurement,setting,value
IKKγ fragment encompassing residues 150 to 272 (domain or fragment) LGELQESQSRLEAATKECQALEGRARAASEQARQLESEREALQQQHSVQVDQLRMQGQSVEAALRMERQAASEEKRKLAQLQVAYHQLFQEYDNHIKSSVVGSERKRGMQLEDLKQQLQQAEE,Kd,[1],30.4 µM
same,Kd,[2],0.2 µM
